According to patent publication US20250320281A1:

Key:
Assay in all cases: cell-based or functional assay
[1] = biological target: HIV-1 Env of isolate 92TH021 (clade AE), on pseudovirus (HIV-1)
[2] = biological target: HIV-1 Env of isolate 92UG005 (HIV-1)
[3] = biological target: HIV-1 Env of isolate 92WR021 (HIV-1)
[4] = biological target: HIV-1 Env of isolate 97ZA012 (subtype C) (HIV-1)
[5] = biological target: HIV-1 Env of isolate 98CN009 (HIV-1)
[6] = biological target: HIV-1 Env of isolate JRFL (subtype B) (HIV-1)
[7] = biological target: HIV-1 Env of isolate MG RM-D-013 (HIV-1)
[8] = biological target: HIV-1 Env of isolate MG RM-D-018 (HIV-1)
[9] = biological target: HIV-1 Env of isolate MG RM-D-019 (HIV-1)
[10] = biological target: HIV-1 Env of isolate MGRM-A-010 (subtype A) (HIV-1)
[11] = biological target: HIV-1 Env of isolate MGRM-AG-008 (subtype AG) (HIV-1)
[12] = biological target: HIV-1 Env of isolate MGRM-AG-012 (subtype AG) (HIV-1)
[13] = biological target: HIV-1 Env of isolate MGRM-AG-013 (subtype AG) (HIV-1)
[14] = biological target: HIV-1 Env of isolate MGRM-C-004 (subtype C) (HIV-1)
[15] = biological target: HIV-1 Env of isolate MGRM-Chronic-B-008 (subtype B) (HIV-1)
[16] = biological target: HIV-1 Env of isolate MGRM-Chronic-B-012 (subtype B) (HIV-1)
[17] = biological target: HIV-1 Env of isolate QH0692.42 (subtype B) (HIV-1)
[18] = biological target: HIV-1 Env of isolate VLGCA1 (subtype A) (HIV-1)
[19] = biological target: HIV-1 Env of pseudovirus isolate MGRM-G-025 (HIV-1)
[20] = biological target: HIV-1 MGRM-A-010 Env (pseudovirus, clade A) (HIV-1)
[21] = biological target: HIV-1 envelope glycoprotein (Env) of isolate MGRM-C-028 (HIV-1)
[22] = biological target: HIV-1 Env of isolate MGRM-G-006 (HIV-1)
[23] = biological target: HIV-1 Env of isolate MGRM-G-015 (HIV-1)
[24] = biological target: HIV-1 Env of isolate MGRM-G-016 (HIV-1)
[25] = biological target: HIV-1 Env of isolate 98CN009 (pseudovirus) (HIV-1)
[26] = biological target: HIV-1 Env of isolate MGRM-AE-006 (HIV-1)
[27] = biological target: HIV-1 Env of isolate MGRM-C-026 (HIV-1)
[28] = biological target: HIV-1 Env of isolate MGRM-Chronic-B-003 (subtype B pseudovirus) (HIV-1)
[29] = biological target: HIV-1 Env of isolate MGRM-Chronic-B-011 (subtype B pseudovirus) (HIV-1)
[30] = biological target: HIV-1 Env of isolate MGRM-D-008 (pseudovirus) (HIV-1)
[31] = biological target: HIV-1 Env of isolate MGRM-F1-010 (pseudovirus) (HIV-1)
[32] = biological target: HIV-1 Env of isolate MGRM-F1-017 (HIV-1)
[33] = biological target: HIV-1 Env of isolate QH0692.42 (subtype B pseudovirus) (HIV-1)
[34] = biological target: HIV-1 Env of isolate 98CN009 (CRF07 BC) (HIV-1 isolate 98CN009)
[35] = biological target: HIV-1 Env of isolate MGRM-Chronic-B-008, clade B, on pseudovirus (HIV-1)
[36] = biological target: HIV-1 Env of isolate THR0.18 (Acute), clade B, on pseudovirus (HIV-1)
[37] = biological target: HIV-1 Env of pseudovirus CMU02 (clade CRF01_AE) (HIV-1)
[38] = biological target: HIV-1 Env of pseudovirus MGRM-Chronic-B-018 (HIV-1)
[39] = biological target: HIV-1 envelope glycoprotein (Env) of isolate 92RW020, clade A (HIV-1)
[40] = biological target: HIV-1 envelope glycoprotein (Env) of isolate 93RW029, clade A (HIV-1)
[41] = biological target: HIV-1 envelope glycoprotein (Env) of isolate MGRM-A-012, clade A (HIV-1)

Sequence of 4993_K13 (PGT-141) (antibody) (VH): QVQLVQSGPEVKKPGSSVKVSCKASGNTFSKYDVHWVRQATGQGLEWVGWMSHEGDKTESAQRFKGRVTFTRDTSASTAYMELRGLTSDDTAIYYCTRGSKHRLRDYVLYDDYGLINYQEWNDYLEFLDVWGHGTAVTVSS
Sequence of 4993_K13 (PGT-141) (antibody) (VL): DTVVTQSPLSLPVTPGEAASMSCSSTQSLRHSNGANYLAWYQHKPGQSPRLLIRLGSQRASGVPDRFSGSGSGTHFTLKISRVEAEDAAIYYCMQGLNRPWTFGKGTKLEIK
Sequence of 5329_C19 (PGT-136) (antibody) (VH): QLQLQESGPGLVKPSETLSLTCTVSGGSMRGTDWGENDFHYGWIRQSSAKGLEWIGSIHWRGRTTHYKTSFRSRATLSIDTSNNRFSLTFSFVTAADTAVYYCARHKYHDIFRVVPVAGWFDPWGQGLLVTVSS
Sequence of 5329_C19 (PGT-136) (antibody) (VL): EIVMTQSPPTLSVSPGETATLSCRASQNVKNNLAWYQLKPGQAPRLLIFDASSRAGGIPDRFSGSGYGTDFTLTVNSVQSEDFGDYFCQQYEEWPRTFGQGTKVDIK
Sequence of 4980_N08 (PGT-143) (antibody) (VH): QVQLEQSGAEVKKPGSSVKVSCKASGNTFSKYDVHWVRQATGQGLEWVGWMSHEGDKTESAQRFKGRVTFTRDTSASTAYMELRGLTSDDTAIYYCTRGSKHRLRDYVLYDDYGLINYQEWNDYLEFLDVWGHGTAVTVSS
Sequence of 4980_N08 (PGT-143) (antibody) (VL): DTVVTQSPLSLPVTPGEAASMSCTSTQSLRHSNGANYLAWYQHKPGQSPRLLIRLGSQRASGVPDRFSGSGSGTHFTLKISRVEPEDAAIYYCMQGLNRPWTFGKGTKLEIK
Sequence of 4970_K22 (PGT-144) (antibody) (VH): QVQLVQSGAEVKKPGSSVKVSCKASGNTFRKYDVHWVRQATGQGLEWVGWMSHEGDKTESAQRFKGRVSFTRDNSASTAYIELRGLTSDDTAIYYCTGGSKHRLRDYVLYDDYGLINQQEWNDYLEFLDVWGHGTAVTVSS
Sequence of 4970_K22 (PGT-144) (antibody) (VL): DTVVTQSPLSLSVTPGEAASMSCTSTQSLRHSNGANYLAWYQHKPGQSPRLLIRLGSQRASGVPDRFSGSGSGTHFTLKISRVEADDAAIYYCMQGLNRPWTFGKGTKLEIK
Sequence of 5345_I01 (PGT-137) (antibody) (VH): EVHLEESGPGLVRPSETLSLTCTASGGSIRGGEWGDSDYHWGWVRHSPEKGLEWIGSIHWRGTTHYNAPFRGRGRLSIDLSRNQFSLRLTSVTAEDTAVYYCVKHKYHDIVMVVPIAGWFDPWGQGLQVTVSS
Sequence of 5345_I01 (PGT-137) (antibody) (VL): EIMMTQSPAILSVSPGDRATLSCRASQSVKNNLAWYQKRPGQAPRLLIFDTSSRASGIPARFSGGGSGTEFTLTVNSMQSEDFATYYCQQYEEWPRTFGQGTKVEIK
Sequence of 4995_E20 (PGT-142) (antibody) (VH): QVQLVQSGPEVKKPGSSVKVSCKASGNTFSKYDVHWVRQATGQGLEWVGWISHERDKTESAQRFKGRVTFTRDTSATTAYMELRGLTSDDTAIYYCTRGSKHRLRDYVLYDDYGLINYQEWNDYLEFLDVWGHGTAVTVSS

Substance | IC50 (µg/mL), pseudovirus neutralization [2] [µg/mL] | IC50 [3] [µg/mL] | IC50 neutralization [4] [µg/mL] | IC50 (µg/mL), pseudovirus neutralization [5] [µg/mL] | IC50 neutralization [6] [µg/mL] | IC50 (µg/mL), pseudovirus neutralization [7] [µg/mL] | IC50 (µg/mL), pseudovirus neutralization [8] [µg/mL] | IC50 (µg/mL), pseudovirus neutralization [9] [µg/mL] | IC50 (µg/mL), pseudovirus neutralization [10] [µg/mL] | IC50 (µg/mL), pseudovirus neutralization [11] [µg/mL] | IC50 (µg/mL), pseudovirus neutralization [12] [µg/mL] | IC50 (µg/mL), pseudovirus neutralization [13] [µg/mL] | IC50 neutralization [14] [µg/mL] | IC50 neutralization [15] [µg/mL] | IC50 neutralization [16] [µg/mL] | IC50 (µg/mL), pseudovirus neutralization [18] [µg/mL] | IC50 (µg/mL), pseudovirus neutralization [19] [µg/mL] | IC50 (µg/mL), pseudovirus neutralization [22] [µg/mL] | IC50 (µg/mL), pseudovirus neutralization [23] [µg/mL] | IC50 (µg/mL), pseudovirus neutralization [24] [µg/mL] | other results
5147_N06 (PGT-130) (antibody) | 0.959 | 0.004 | 1.32 | 0.136 | 0.046 | 0.429 | 0.049 | > 50 | 0.005 | > 50 | > 50 | 0.01 | 2.76 | 5.18 | 0.373 | > 50 | 8.45 | – | – | – | IC50, pseudovirus neutralization [1]: 0.0082 µg/mL; IC50 neutralization [17]: > 50 µg/mL; IC50 neutralization [20]: 0.0054 µg/mL; IC50 (µg/mL), pseudovirus neutralization [21]: > 50 µg/mL
5136_H01 (PGT-131) (antibody) | 0.854 | 0.012 | 1.81 | 4.05 | 0.454 | 4.14 | 0.148 | > 50 | 0.01 | > 50 | > 50 | 0.03 | 3.71 | > 50 | 15.7 | > 50 | 7.75 | – | – | – | IC50 neutralization [17]: > 50 µg/mL; IC50 (µg/mL), pseudovirus neutralization [21]: > 50 µg/mL
4993_K13 (PGT-141) (antibody) | > 50 | – | – | – | – | – | – | – | – | – | – | – | – | – | – | 2.07 | – | 0.043 | > 50 | 4.69 | –
5145_B14 (PGT-127) (antibody) | – | – | – | – | – | – | – | – | – | – | – | – | – | – | – | – | 19.3 | – | – | – | IC50, pseudovirus neutralization [25]: 0.09 µg/mL; IC50 [26]: > 50 µg/mL; neutralization IC50 [27]: 0.014 µg/mL; IC50 (µg/mL), pseudovirus neutralization [28]: 0.12 µg/mL; IC50 (µg/mL), pseudovirus neutralization [29]: 0.297 µg/mL; IC50, pseudovirus neutralization [30]: > 50 µg/mL; IC50, pseudovirus neutralization [31]: > 50 µg/mL; IC50 (µg/mL), pseudovirus neutralization [32]: > 50 µg/mL; IC50 (µg/mL), pseudovirus neutralization [33]: 0.129 µg/mL
5343_B08 (PGT-135) (antibody) | > 50 | > 50 | > 50 | 0.071 | > 50 | > 50 | 0.039 | > 50 | > 50 | > 50 | 41.9 | > 50 | 0.046 | > 50 | 0.166 | > 50 | 0.592 | – | – | – | IC50, pseudovirus neutralization [1]: > 10 µg/mL; IC50 neutralization [17]: > 50 µg/mL; IC50 neutralization [20]: > 10 µg/mL; IC50 (µg/mL), pseudovirus neutralization [21]: 1.47 µg/mL
5345_I01 (PGT-137) (antibody) | > 50 | 3.52 | > 50 | 5.06 | > 50 | > 50 | 15.1 | > 50 | > 50 | > 50 | > 50 | > 50 | 0.026 | > 50 | > 50 | > 50 | > 50 | – | – | – | IC50 neutralization [17]: > 50 µg/mL; IC50 (µg/mL), pseudovirus neutralization [21]: > 50 µg/mL
4980_N08 (PGT-143) (antibody) | – | – | – | – | – | – | – | – | – | – | – | – | – | – | – | 17.4 | – | 0.031 | > 50 | 7.6 | –
4995_E20 (PGT-142) (antibody) | – | – | – | – | – | – | – | – | – | – | – | – | – | – | – | 2.75 | – | 0.019 | > 50 | 8.17 | –
5114_A19 (PGT-128) (antibody) | 0.018 | 0.005 | 0.019 | 0.025 | 0.007 | 8.85 | 0.008 | > 50 | 0.005 | 0.668 | > 50 | 0.004 | 0.025 | 0.143 | 0.026 | 0.838 | 0.017 | – | – | – | IC50 neutralization [17]: 0.029 µg/mL; IC50 (µg/mL), pseudovirus neutralization [21]: 14.4 µg/mL
VRC01 (antibody) | – | – | – | – | – | – | – | – | – | – | – | – | – | – | – | 0.163 | – | 0.055 | 0.548 | 0.063 | IC50 [7]: 0.087 µg/mL; IC50 [8]: > 50 µg/mL; IC50 [9]: 0.119 µg/mL; IC50 (µg/mL), pseudovirus neutralization [27]: 0.707 µg/mL; IC50 [32]: 1.08 µg/mL
PGV04 (antibody) | – | – | – | – | – | – | – | – | – | – | – | – | – | – | – | – | – | 0.083 | 0.333 | 0.019 | IC50 [5]: 0.0125 µg/mL
4970_K22 (PGT-144) (antibody) | – | – | – | – | – | – | – | – | – | – | – | – | – | – | – | > 50 | – | 3.84 | > 50 | > 50 | –
5329_C19 (PGT-136) (antibody) | > 50 | > 50 | > 50 | 0.428 | > 50 | > 50 | > 50 | > 50 | > 50 | > 50 | > 50 | > 50 | 0.034 | > 50 | 43.1 | > 50 | > 50 | – | – | – | IC50, pseudovirus neutralization [1]: > 10 µg/mL; IC50 neutralization [17]: > 50 µg/mL; IC50 neutralization [20]: > 10 µg/mL; IC50 (µg/mL), pseudovirus neutralization [21]: 33.7 µg/mL
1496_C09 (PG9) (TCN-109) (antibody) | – | – | – | – | – | – | – | – | – | – | – | – | – | – | – | – | – | 1.98 | 6.6 | 1.36 | IC50, pseudovirus neutralization [1]: 0.103 µg/mL; IC50 (µg/ml), pseudovirus neutralization [34]: 1.07 µg/mL; IC50 [5]: 0.371 µg/mL; IC50 (µg/ml), pseudovirus neutralization [35]: 6.66 µg/mL; IC50 (µg/ml), pseudovirus neutralization [36]: 12.4 µg/mL; IC50 [37]: 7.69 µg/mL; IC50 (µg/ml), pseudovirus neutralization [38]: 0.16 µg/mL; IC50 neutralization [20]: 0.0375 µg/mL; IC50 (µg/ml), pseudovirus neutralization [39]: 0.08 µg/mL; IC50 (µg/ml), pseudovirus neutralization [40]: 1.19 µg/mL; IC50 (µg/ml), pseudovirus neutralization [41]: 11.2 µg/mL
